Patent US20050089840A1 (FRONTIER BIOTECHNOLOGIES, published 2005)

Assays:
[1] = biological target: HIV-1 IIIB viral envelope protein gp41 (HIV-1 IIIB) (UniProt P04578); experiment: cell-based or functional assay
[2] = biological target: HIV-1 IIIB viral envelope protein gp41 (HIV-1 IIIB, UniProt P04578 512-856); experiment: cell-based or functional assay

Molecule	IC50 (nM), 50% viral inhibition drug concentration, HIV-1 IIIB in fresh human PBMC cultures [1] [nM]	fold increase of the antiviral IC50 against FB006 [1] [fold]	IC50 (nM), 50% viral inhibition drug concentration, HIV-1 IIIB in fresh human PBMC cultures [2] [nM]
FB006M conjugated with human serum albumin (HSA) (from UniProt P02768 25-609)	3.94	2.8	–
Ac-SLEQIWNNMTWEEWDREINNYTELIHELIEESQNQQEKNEQELL-NH2 [FB005]	–	–	0.93
Ac-WEEWDREINNYTKLIHELIEESQNQQEKNEQELL-NH2 [FB006]	–	–	1.41
